Target: the molecule itself
Test: SDS-PAGE; samples in SDS buffer on a polyacrylamide gel; bands of the dissolved crystals identified by PMF MALDI-TOF; crystals heated at ~95°C for 5 min

B1: catalase HPII (endogenous, Escherichia coli) (enzyme, Escherichia coli (endogenous in E. coli), UniProt P21179 1-753, looked up)
chain: MSQHNEKNPHQHQSPLHDSSEAKPGMDSLAPEDGSHRPAAEPTPPGAQPTAPGSLKAPDTRNEKLNSLEDVRKGSENYALTTNQGVRIADDQNSLRAGSRGPTLLEDFILREKITHFDHERIPERIVHARGSAAHGYFQPYKSLSDITKADFLSDPNKITPVFVRFSTVQGGAGSADTVRDIRGFATKFYTEEGIFDLVGNNTPIFFIQDAHKFPDFVHAVKPEPHWAIPQGQSAHDTFWDYVSLQPETLHNVMWAMSDRGIPRSYRTMEGFGIHTFRLINAEGKATFVRFHWKPLAGKASLVWDEAQKLTGRDPDFHRRELWEAIEAGDFPEYELGFQLIPEEDEFKFDFDLLDPTKLIPEELVPVQRVGKMVLNRNPDNFFAENEQAAFHPGHIVPGLDFTNDPLLQGRLFSYTDTQISRLGGPNFHEIPINRPTCPYHNFQRDGMHRMGIDTNPANYEPNSINDNWPRETPPGPKRGGFESYQERVEGNKVRERSPSFGEYYSHPRLFWLSQTPFEQRHIVDGFSFELSKVVRPYIRERVVDQLAHIDLTLAQAVAKNLGIELTDDQLNITPPPDVNGLKKDPSLSLYAIPDGDVKGRVVAILLNDEVRSADLLAILKALKAKGVHAKLLYSRMGEVTADDGTVLPIAATFAGAPSLTVDAVIVPCGNIADIADNGDANYYLMEAYKHLKPIALAGDARKFKATIKIADQGEEGIVEADSADGSFMDELLTLMAAHRVWSRIPKIDKIPA
notes: catalase HPII of Escherichia coli, product of the katE gene, endogenous protein, printed molecular weight 84 kDa; residues 27-753 and one heme resolved in the map; Homotetramer, one heme per subunit; also called HPII tetramer; source: endogenous, E. coli overexpressing PomAB mutants
With B1 the “stoichiometry N” value was 2 subunits.
